{"source": "the supplement of paper PMC6755084", "parents": {"B1": {"name": "F1*; the commonest letter at each place (parent)", "chain": "GAGACCGCAACTGAAAAGTTGTTATCACTTGTCGTAAGACACTTTGGATGGGTTGAAGTTCTGCACGTAGAAGCAAAAGGC"}}}
{"variants_of": "B1", "experiment": "fraction ligated after 30 min (ligated reads / total reads); higher = more ligase activity", "details": "with F1*sub RNA substrate (template-directed ligation), 42 °C", "protocol": "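Chip-synthesised pool of F1* ligase ribozyme variants (all single and double substitutions, single, double and triple deletions in the catalytic core and GAA bulge, plus designed variants) was transcribed with T7 and reacted as a pool with excess substrate F1*sub for 30 min at 42 C in 50 mM EPPS pH 8.5, 25 mM MgCl2. Ligated and unligated bands were separated by PAGE, barcoded by RT and deep sequenced; fraction ligated = ligated reads / total reads per variant, relative activity = FL / FL of wild type (0.826). Sequences are the DNA template of the ribozyme.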"}
{"variant": "C28A C42T", "fraction ligated": 0.823}
{"variant": "C28A G31A", "fraction ligated": 0.84}
{"variant": "C28A G31C", "fraction ligated": 0.831}
{"variant": "C28A G31T", "fraction ligated": 0.826}
{"variant": "C28A G34A", "fraction ligated": 0.812}
{"variant": "C28A G34C", "fraction ligated": 0.779}
{"variant": "C28A G34T", "fraction ligated": 0.808}
{"variant": "C28A G38A", "fraction ligated": 0.789}
{"variant": "C28A G38C", "fraction ligated": 0.814}
{"variant": "C28A G38T", "fraction ligated": 0.799}
{"variant": "C28A G46A", "fraction ligated": 0.829}
{"variant": "C28A G46C", "fraction ligated": 0.79}
{"variant": "C28A G46T", "fraction ligated": 0.803}
{"variant": "C28A G47A", "fraction ligated": 0.75}
{"variant": "C28A G47C", "fraction ligated": 0.302}
{"variant": "C28A G47T", "fraction ligated": 0.361}
{"variant": "C28A G50A", "fraction ligated": 0.154}
{"variant": "C28A G50C", "fraction ligated": 0.163}
{"variant": "C28A G50T", "fraction ligated": 0.517}
{"variant": "C28A G55A", "fraction ligated": 0.793}
{"variant": "C28A G55C", "fraction ligated": 0.19}
{"variant": "C28A G55T", "fraction ligated": 0.8}
{"variant": "C28A T29A", "fraction ligated": 0.798}
{"variant": "C28A T29C", "fraction ligated": 0.828}
{"variant": "C28A T29G", "fraction ligated": 0.814}
{"variant": "C28A T30A", "fraction ligated": 0.8}
{"variant": "C28A T30C", "fraction ligated": 0.804}
{"variant": "C28A T30G", "fraction ligated": 0.808}
{"variant": "C28A T32A", "fraction ligated": 0.836}
{"variant": "C28A T32C", "fraction ligated": 0.756}
{"variant": "C28A T32G", "fraction ligated": 0.812}
{"variant": "C28A T35A", "fraction ligated": 0.792}
{"variant": "C28A T35C", "fraction ligated": 0.807}
{"variant": "C28A T35G", "fraction ligated": 0.812}
{"variant": "C28A T43A", "fraction ligated": 0.799}
{"variant": "C28A T43C", "fraction ligated": 0.795}
{"variant": "C28A T43G", "fraction ligated": 0.812}
{"variant": "C28A T44A", "fraction ligated": 0.834}
{"variant": "C28A T44C", "fraction ligated": 0.802}
{"variant": "C28A T44G", "fraction ligated": 0.798}
{"variant": "C28A T45A", "fraction ligated": 0.698}
{"variant": "C28A T45C", "fraction ligated": 0.499}
{"variant": "C28A T45G", "fraction ligated": 0.0334}
{"variant": "C28A T49A", "fraction ligated": 0.679}
{"variant": "C28A T49C", "fraction ligated": 0.605}
{"variant": "C28A T49G", "fraction ligated": 0.724}
{"variant": "C28G", "fraction ligated": 0.797}
{"variant": "C28G A36C", "fraction ligated": 0.759}
{"variant": "C28G A36G", "fraction ligated": 0.812}
{"variant": "C28G A36T", "fraction ligated": 0.788}
{"variant": "C28G A37C", "fraction ligated": 0.766}
{"variant": "C28G A37G", "fraction ligated": 0.809}
{"variant": "C28G A37T", "fraction ligated": 0.808}
{"variant": "C28G A39C", "fraction ligated": 0.759}
{"variant": "C28G A39G", "fraction ligated": 0.772}
{"variant": "C28G A39T", "fraction ligated": 0.755}
{"variant": "C28G A41C", "fraction ligated": 0.751}
{"variant": "C28G A41G", "fraction ligated": 0.744}
{"variant": "C28G A41T", "fraction ligated": 0.801}
{"variant": "C28G A48C", "fraction ligated": 0.405}
{"variant": "C28G A48G", "fraction ligated": 0.751}
{"variant": "C28G A48T", "fraction ligated": 0.47}
{"variant": "C28G A56C", "fraction ligated": 0.7}
{"variant": "C28G A56G", "fraction ligated": 0.722}
{"variant": "C28G A56T", "fraction ligated": 0.767}
{"variant": "C28G A57C", "fraction ligated": 0.77}
{"variant": "C28G A57G", "fraction ligated": 0.791}
{"variant": "C28G A57T", "fraction ligated": 0.79}
{"variant": "C28G C33A", "fraction ligated": 0.757}
{"variant": "C28G C33G", "fraction ligated": 0.505}
{"variant": "C28G C33T", "fraction ligated": 0.786}
{"variant": "C28G C40A", "fraction ligated": 0.791}
{"variant": "C28G C40G", "fraction ligated": 0.812}
{"variant": "C28G C40T", "fraction ligated": 0.806}
{"variant": "C28G C42A", "fraction ligated": 0.824}
{"variant": "C28G C42G", "fraction ligated": 0.851}
{"variant": "C28G C42T", "fraction ligated": 0.815}
{"variant": "C28G G31A", "fraction ligated": 0.799}
{"variant": "C28G G31C", "fraction ligated": 0.81}
{"variant": "C28G G31T", "fraction ligated": 0.833}
{"variant": "C28G G34A", "fraction ligated": 0.794}
{"variant": "C28G G34C", "fraction ligated": 0.768}
{"variant": "C28G G34T", "fraction ligated": 0.798}
{"variant": "C28G G38A", "fraction ligated": 0.792}
{"variant": "C28G G38C", "fraction ligated": 0.778}
{"variant": "C28G G38T", "fraction ligated": 0.772}
{"variant": "C28G G46A", "fraction ligated": 0.811}
{"variant": "C28G G46C", "fraction ligated": 0.792}
{"variant": "C28G G46T", "fraction ligated": 0.771}
{"variant": "C28G G47A", "fraction ligated": 0.763}
{"variant": "C28G G47C", "fraction ligated": 0.484}
{"variant": "C28G G47T", "fraction ligated": 0.591}
{"variant": "C28G G50A", "fraction ligated": 0.224}
{"variant": "C28G G50C", "fraction ligated": 0.19}
{"variant": "C28G G50T", "fraction ligated": 0.594}
{"variant": "C28G G55A", "fraction ligated": 0.779}
{"variant": "C28G G55C", "fraction ligated": 0.28}
{"variant": "C28G G55T", "fraction ligated": 0.763}
{"variant": "C28G T29A", "fraction ligated": 0.803}
{"variant": "C28G T29C", "fraction ligated": 0.814}
{"variant": "C28G T29G", "fraction ligated": 0.789}
{"variant": "C28G T30A", "fraction ligated": 0.802}
{"variant": "C28G T30C", "fraction ligated": 0.794}
{"variant": "C28G T30G", "fraction ligated": 0.788}
{"variant": "C28G T32A", "fraction ligated": 0.795}
{"variant": "C28G T32C", "fraction ligated": 0.723}
{"variant": "C28G T32G", "fraction ligated": 0.783}
{"variant": "C28G T35A", "fraction ligated": 0.814}
{"variant": "C28G T35C", "fraction ligated": 0.802}
{"variant": "C28G T35G", "fraction ligated": 0.759}
{"variant": "C28G T43A", "fraction ligated": 0.807}
{"variant": "C28G T43C", "fraction ligated": 0.798}
{"variant": "C28G T43G", "fraction ligated": 0.794}
{"variant": "C28G T44A", "fraction ligated": 0.791}
{"variant": "C28G T44C", "fraction ligated": 0.778}
{"variant": "C28G T44G", "fraction ligated": 0.778}
{"variant": "C28G T45A", "fraction ligated": 0.558}
{"variant": "C28G T45C", "fraction ligated": 0.337}
{"variant": "C28G T45G", "fraction ligated": 0.259}
{"variant": "C28G T49A", "fraction ligated": 0.656}
{"variant": "C28G T49C", "fraction ligated": 0.674}
{"variant": "C28G T49G", "fraction ligated": 0.763}
{"variant": "C28T", "fraction ligated": 0.812}
{"variant": "C28T A36C", "fraction ligated": 0.801}
{"variant": "C28T A36G", "fraction ligated": 0.81}
{"variant": "C28T A36T", "fraction ligated": 0.799}
{"variant": "C28T A37C", "fraction ligated": 0.799}
{"variant": "C28T A37G", "fraction ligated": 0.8}
{"variant": "C28T A37T", "fraction ligated": 0.81}
{"variant": "C28T A39C", "fraction ligated": 0.795}
{"variant": "C28T A39G", "fraction ligated": 0.796}
{"variant": "C28T A39T", "fraction ligated": 0.796}
{"variant": "C28T A41C", "fraction ligated": 0.792}
{"variant": "C28T A41G", "fraction ligated": 0.789}
{"variant": "C28T A41T", "fraction ligated": 0.806}
{"variant": "C28T A48C", "fraction ligated": 0.606}
{"variant": "C28T A48G", "fraction ligated": 0.788}
{"variant": "C28T A48T", "fraction ligated": 0.709}
{"variant": "C28T A56C", "fraction ligated": 0.595}
{"variant": "C28T A56G", "fraction ligated": 0.567}
{"variant": "C28T A56T", "fraction ligated": 0.731}
{"variant": "C28T A57C", "fraction ligated": 0.744}
{"variant": "C28T A57G", "fraction ligated": 0.798}
{"variant": "C28T A57T", "fraction ligated": 0.817}
{"variant": "C28T C33A", "fraction ligated": 0.816}
{"variant": "C28T C33G", "fraction ligated": 0.809}
{"variant": "C28T C33T", "fraction ligated": 0.822}
{"variant": "C28T C40A", "fraction ligated": 0.824}
{"variant": "C28T C40G", "fraction ligated": 0.81}
{"variant": "C28T C40T", "fraction ligated": 0.796}
{"variant": "C28T C42A", "fraction ligated": 0.805}
{"variant": "C28T C42G", "fraction ligated": 0.813}
{"variant": "C28T C42T", "fraction ligated": 0.819}
{"variant": "C28T G31A", "fraction ligated": 0.81}
{"variant": "C28T G31C", "fraction ligated": 0.828}
{"variant": "C28T G31T", "fraction ligated": 0.826}
{"variant": "C28T G34A", "fraction ligated": 0.814}
{"variant": "C28T G34C", "fraction ligated": 0.79}
{"variant": "C28T G34T", "fraction ligated": 0.802}
{"variant": "C28T G38A", "fraction ligated": 0.811}
{"variant": "C28T G38C", "fraction ligated": 0.799}
{"variant": "C28T G38T", "fraction ligated": 0.795}
{"variant": "C28T G46A", "fraction ligated": 0.802}
{"variant": "C28T G46C", "fraction ligated": 0.8}
{"variant": "C28T G46T", "fraction ligated": 0.788}
{"variant": "C28T G47A", "fraction ligated": 0.787}
{"variant": "C28T G47C", "fraction ligated": 0.252}
